{"source": "patent US20200131230A1", "about": "(published 2020)", "key": {"[1]": {"target": "T1, Thrombospondin human platelet (Calbiochem, 605225) (human, UniProt P07996 19-1170)", "T1 sequence (P07996 19-1170 limits assumed)": "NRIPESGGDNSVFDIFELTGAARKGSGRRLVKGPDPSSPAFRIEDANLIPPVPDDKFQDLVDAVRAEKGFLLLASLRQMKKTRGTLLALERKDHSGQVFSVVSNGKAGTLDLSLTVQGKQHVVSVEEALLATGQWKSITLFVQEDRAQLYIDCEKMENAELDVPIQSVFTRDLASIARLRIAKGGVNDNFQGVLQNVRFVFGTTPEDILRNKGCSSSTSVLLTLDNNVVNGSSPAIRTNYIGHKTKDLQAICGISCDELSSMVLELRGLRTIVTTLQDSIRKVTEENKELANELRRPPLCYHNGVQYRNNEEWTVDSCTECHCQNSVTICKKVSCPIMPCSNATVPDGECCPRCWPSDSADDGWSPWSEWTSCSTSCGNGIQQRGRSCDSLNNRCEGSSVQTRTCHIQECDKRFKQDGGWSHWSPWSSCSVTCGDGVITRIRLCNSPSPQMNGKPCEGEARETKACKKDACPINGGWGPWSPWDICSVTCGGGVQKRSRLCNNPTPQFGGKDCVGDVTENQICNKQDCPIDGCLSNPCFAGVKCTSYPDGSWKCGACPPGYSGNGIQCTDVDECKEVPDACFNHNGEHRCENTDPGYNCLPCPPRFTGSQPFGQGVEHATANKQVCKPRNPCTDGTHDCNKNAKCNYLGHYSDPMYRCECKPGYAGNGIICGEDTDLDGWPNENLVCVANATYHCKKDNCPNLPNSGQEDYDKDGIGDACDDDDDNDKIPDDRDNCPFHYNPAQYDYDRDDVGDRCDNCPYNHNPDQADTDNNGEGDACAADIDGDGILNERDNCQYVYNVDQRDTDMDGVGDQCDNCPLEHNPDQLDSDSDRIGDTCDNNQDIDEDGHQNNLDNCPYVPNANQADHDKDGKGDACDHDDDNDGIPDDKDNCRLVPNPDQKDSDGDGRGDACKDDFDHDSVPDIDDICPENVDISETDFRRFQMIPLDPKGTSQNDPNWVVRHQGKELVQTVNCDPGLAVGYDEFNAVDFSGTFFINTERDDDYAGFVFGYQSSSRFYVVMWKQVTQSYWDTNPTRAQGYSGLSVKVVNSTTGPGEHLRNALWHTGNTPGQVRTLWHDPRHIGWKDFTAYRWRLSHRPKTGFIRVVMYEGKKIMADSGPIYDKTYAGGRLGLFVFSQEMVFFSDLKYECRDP", "test": "cell-based or functional assay"}, "Recombinant-hTSP1": {"target": "Recombinant-hTSP1 (human, UniProt P07996 19-1170, limits assumed)", "sequence (P07996 19-1170 limits assumed)": "as above", "test": "SPR (Biacore T200), single-cycle kinetics, recombinant hTSP1 immobilised on NTA chip", "protocol": "First, 500 μM NiCl₂ was injected over an NTA-Chip (produced by GE Healthcare, BR100532) at a flow rate of 5 μL/min. for 1 minute to thereby activate NTA groups. Then, an EDC/NHS mixture was injected at a flow rate of 10 μL/min. for 7 minutes to thereby activate the carboxyl groups of dextran. Recombinant-hTSP1 was injected at a flow rate of 10 μL/min. for 7 minutes to immobilize the TSP1 on the substrate surfaces with activated NTA and carboxyl groups. Ethanolamine was injected at a flow rate of 10 μL/min. for 7 minutes to thereby deactivate unreacted, activated carboxyl groups.\nSince Biacore T200 is highly responsive to change in DMSO concentrations, DMSO solutions were sequentially injected at concentrations of 4%, 4.4%, 4.8%, 5.2%, 5.6%, and 6% to correct for DMSO effects.\nThe analysis was conducted using the evaluation software provided with Biacore T100 and T200. A DMSO correction curve obtained by solvent correction measurements was applied for the analysis. Kinetics fitting was done on the difference data obtained by subtracting the baseline data from sample measurement data."}, "[2]": {"target": "T1, Thrombospondin human platelet …", "test": "cell-based or functional assay", "remark": "listed apart in the source"}}, "note": "Like-named read-outs stand apart in the source and are kept apart here. Positions of bridges follow the written chain, without caps; N, C: chain ends. Non-standard residues stand in square brackets, D forms with d. 2Nal = N[C@@H](Cc1ccc2ccccc2c1)C(=O)O"}
{"binder": "{CH2CO}-[2Nal]ISGRNWVKWVC-NH2 (thioether N-12; SMILES CC[C@H](C)[C@@H]1NC(=O)[C@H](Cc2ccc3ccccc3c2)NC(=O)CSC[C@@H](C(N)=O)NC(=O)[C@H](C(C)C)NC(=O)[C@H](Cc2c[nH]c3ccccc23)NC(=O)[C@H](CCCCN)NC(=O)[C@H](C(C)C)NC(=O)[C@H](Cc2c[nH]c3ccccc23)NC(=O)[C@H](CC(N)=O)NC(=O)[C@H](CCCNC(=N)N)NC(=O)CNC(=O)[C@H](CO)NC1=O)", "note": "[Compound 24]", "values": [{"measurement": "Cell adhesion IC50", "setting": "[1]", "value": 6.1, "unit": "nM"}, {"measurement": "Kd", "setting": "Recombinant-hTSP1", "value": 0.12, "unit": "nM"}]}
{"binder": "{CH2CO}-[2Nal]ISGKNWVKWVC-NH2 (thioether N-12; SMILES CC[C@H](C)[C@@H]1NC(=O)[C@H](Cc2ccc3ccccc3c2)NC(=O)CSC[C@@H](C(N)=O)NC(=O)[C@H](C(C)C)NC(=O)[C@H](Cc2c[nH]c3ccccc23)NC(=O)[C@H](CCCCN)NC(=O)[C@H](C(C)C)NC(=O)[C@H](Cc2c[nH]c3ccccc23)NC(=O)[C@H](CC(N)=O)NC(=O)[C@H](CCCCN)NC(=O)CNC(=O)[C@H](CO)NC1=O)", "note": "[Compound 43]", "values": [{"measurement": "Kd", "setting": "Recombinant-hTSP1", "value": 0.13, "unit": "nM"}, {"measurement": "Cell adhesion IC50", "setting": "[2]", "value": 9.2, "unit": "nM"}]}
{"binder": "{CH2CO}-[2Nal]ISGRNWVHWVC-NH2 (thioether N-12; SMILES CC[C@H](C)[C@@H]1NC(=O)[C@H](Cc2ccc3ccccc3c2)NC(=O)CSC[C@@H](C(N)=O)NC(=O)[C@H](C(C)C)NC(=O)[C@H](Cc2c[nH]c3ccccc23)NC(=O)[C@H](Cc2c[nH]cn2)NC(=O)[C@H](C(C)C)NC(=O)[C@H](Cc2c[nH]c3ccccc23)NC(=O)[C@H](CC(N)=O)NC(=O)[C@H](CCCNC(=N)N)NC(=O)CNC(=O)[C@H](CO)NC1=O)", "note": "[Compound 41]", "values": [{"measurement": "Kd", "setting": "Recombinant-hTSP1", "value": 0.37, "unit": "nM"}, {"measurement": "Cell adhesion IC50", "setting": "[2]", "value": 16.4, "unit": "nM"}]}
{"binder": "{CH2CO}-[2Nal]ISGHNWVKWVC-NH2 (thioether N-12; SMILES CC[C@H](C)[C@@H]1NC(=O)[C@H](Cc2ccc3ccccc3c2)NC(=O)CSC[C@@H](C(N)=O)NC(=O)[C@H](C(C)C)NC(=O)[C@H](Cc2c[nH]c3ccccc23)NC(=O)[C@H](CCCCN)NC(=O)[C@H](C(C)C)NC(=O)[C@H](Cc2c[nH]c3ccccc23)NC(=O)[C@H](CC(N)=O)NC(=O)[C@H](Cc2c[nH]cn2)NC(=O)CNC(=O)[C@H](CO)NC1=O)", "note": "[Compound 42]", "values": [{"measurement": "Kd", "setting": "Recombinant-hTSP1", "value": 0.44, "unit": "nM"}, {"measurement": "Cell adhesion IC50", "setting": "[2]", "value": 32, "unit": "nM"}]}
{"binder": "{CH2CO}-FISGRNWVRWRC-NH2 (thioether N-12; SMILES CC[C@H](C)[C@@H]1NC(=O)[C@H](Cc2ccccc2)NC(=O)CSC[C@@H](C(N)=O)NC(=O)[C@H](CCCNC(=N)N)NC(=O)[C@H](Cc2c[nH]c3ccccc23)NC(=O)[C@H](CCCNC(=N)N)NC(=O)[C@H](C(C)C)NC(=O)[C@H](Cc2c[nH]c3ccccc23)NC(=O)[C@H](CC(N)=O)NC(=O)[C@H](CCCNC(=N)N)NC(=O)CNC(=O)[C@H](CO)NC1=O)", "note": "[Compound 5]", "values": [{"measurement": "Cell adhesion IC50", "setting": "[1]", "value": 33.4, "unit": "nM"}, {"measurement": "Kd", "setting": "Recombinant-hTSP1", "value": 0.9, "unit": "nM"}]}
{"binder": "{CH2CO}-FRSGRNWVKWVC-NH2 (thioether N-12; SMILES CC(C)[C@@H]1NC(=O)[C@H](Cc2c[nH]c3ccccc23)NC(=O)[C@H](CCCCN)NC(=O)[C@H](C(C)C)NC(=O)[C@H](Cc2c[nH]c3ccccc23)NC(=O)[C@H](CC(N)=O)NC(=O)[C@H](CCCNC(=N)N)NC(=O)CNC(=O)[C@H](CO)NC(=O)[C@H](CCCNC(=N)N)NC(=O)[C@H](Cc2ccccc2)NC(=O)CSC[C@@H](C(N)=O)NC1=O)", "note": "[Compound 6]", "values": [{"measurement": "Cell adhesion IC50", "setting": "[1]", "value": 27.3, "unit": "nM"}, {"measurement": "Kd", "setting": "Recombinant-hTSP1", "value": 0.44, "unit": "nM"}]}
{"binder": "{CH2CO}-WISGRNWVKWVC-NH2 (thioether N-12; SMILES CC[C@H](C)[C@@H]1NC(=O)[C@H](Cc2c[nH]c3ccccc23)NC(=O)CSC[C@@H](C(N)=O)NC(=O)[C@H](C(C)C)NC(=O)[C@H](Cc2c[nH]c3ccccc23)NC(=O)[C@H](CCCCN)NC(=O)[C@H](C(C)C)NC(=O)[C@H](Cc2c[nH]c3ccccc23)NC(=O)[C@H](CC(N)=O)NC(=O)[C@H](CCCNC(=N)N)NC(=O)CNC(=O)[C@H](CO)NC1=O)", "note": "[Compound 9]", "values": [{"measurement": "Cell adhesion IC50", "setting": "[1]", "value": 27.3, "unit": "nM"}, {"measurement": "Kd", "setting": "Recombinant-hTSP1", "value": 0.23, "unit": "nM"}]}
{"binder": "{CH2CO}-WISGRNWVRWVC-NH2 (thioether N-12; SMILES CC[C@H](C)[C@@H]1NC(=O)[C@H](Cc2c[nH]c3ccccc23)NC(=O)CSC[C@@H](C(N)=O)NC(=O)[C@H](C(C)C)NC(=O)[C@H](Cc2c[nH]c3ccccc23)NC(=O)[C@H](CCCNC(=N)N)NC(=O)[C@H](C(C)C)NC(=O)[C@H](Cc2c[nH]c3ccccc23)NC(=O)[C@H](CC(N)=O)NC(=O)[C@H](CCCNC(=N)N)NC(=O)CNC(=O)[C@H](CO)NC1=O)", "note": "[Compound 11]", "values": [{"measurement": "Cell adhesion IC50", "setting": "[1]", "value": 26.3, "unit": "nM"}, {"measurement": "Kd", "setting": "Recombinant-hTSP1", "value": 0.14, "unit": "nM"}]}
{"binder": "{CH2CO}-FITGRNWVKWVC-NH2 (thioether N-12; SMILES CC[C@H](C)[C@@H]1NC(=O)[C@H](Cc2ccccc2)NC(=O)CSC[C@@H](C(N)=O)NC(=O)[C@H](C(C)C)NC(=O)[C@H](Cc2c[nH]c3ccccc23)NC(=O)[C@H](CCCCN)NC(=O)[C@H](C(C)C)NC(=O)[C@H](Cc2c[nH]c3ccccc23)NC(=O)[C@H](CC(N)=O)NC(=O)[C@H](CCCNC(=N)N)NC(=O)CNC(=O)[C@H]([C@@H](C)O)NC1=O)", "note": "[Compound 12]", "values": [{"measurement": "Cell adhesion IC50", "setting": "[1]", "value": 22.2, "unit": "nM"}, {"measurement": "Kd", "setting": "Recombinant-hTSP1", "value": 0.38, "unit": "nM"}]}
{"binder": "{CH2CO}-FISGRTWVKWVC-NH2 (thioether N-12; SMILES CC[C@H](C)[C@@H]1NC(=O)[C@H](Cc2ccccc2)NC(=O)CSC[C@@H](C(N)=O)NC(=O)[C@H](C(C)C)NC(=O)[C@H](Cc2c[nH]c3ccccc23)NC(=O)[C@H](CCCCN)NC(=O)[C@H](C(C)C)NC(=O)[C@H](Cc2c[nH]c3ccccc23)NC(=O)[C@H]([C@@H](C)O)NC(=O)[C@H](CCCNC(=N)N)NC(=O)CNC(=O)[C@H](CO)NC1=O)", "note": "[Compound 13]", "values": [{"measurement": "Cell adhesion IC50", "setting": "[1]", "value": 18.7, "unit": "nM"}, {"measurement": "Kd", "setting": "Recombinant-hTSP1", "value": 0.096, "unit": "nM"}]}
{"binder": "{CH2CO}-FISGKNWVKWVC-NH2 (thioether N-12; SMILES CC[C@H](C)[C@@H]1NC(=O)[C@H](Cc2ccccc2)NC(=O)CSC[C@@H](C(N)=O)NC(=O)[C@H](C(C)C)NC(=O)[C@H](Cc2c[nH]c3ccccc23)NC(=O)[C@H](CCCCN)NC(=O)[C@H](C(C)C)NC(=O)[C@H](Cc2c[nH]c3ccccc23)NC(=O)[C@H](CC(N)=O)NC(=O)[C@H](CCCCN)NC(=O)CNC(=O)[C@H](CO)NC1=O)", "note": "[Compound 7]", "values": [{"measurement": "Cell adhesion IC50", "setting": "[1]", "value": 20.6, "unit": "nM"}, {"measurement": "Kd", "setting": "Recombinant-hTSP1", "value": 0.12, "unit": "nM"}]}
{"binder": "{CH2CO}-FISGKNWVRWVC-NH2 (thioether N-12; SMILES CC[C@H](C)[C@@H]1NC(=O)[C@H](Cc2ccccc2)NC(=O)CSC[C@@H](C(N)=O)NC(=O)[C@H](C(C)C)NC(=O)[C@H](Cc2c[nH]c3ccccc23)NC(=O)[C@H](CCCNC(=N)N)NC(=O)[C@H](C(C)C)NC(=O)[C@H](Cc2c[nH]c3ccccc23)NC(=O)[C@H](CC(N)=O)NC(=O)[C@H](CCCCN)NC(=O)CNC(=O)[C@H](CO)NC1=O)", "note": "[Compound 10]", "values": [{"measurement": "Cell adhesion IC50", "setting": "[1]", "value": 10.9, "unit": "nM"}, {"measurement": "Kd", "setting": "Recombinant-hTSP1", "value": 0.091, "unit": "nM"}]}
